In data set [1] the test system is peptide loaded HLA-A2.1+ T2 cells.
For data set [2], the target named is T1, HLA-A2.1 (Homo sapiens, UniProt P04439, D140Y/D185E/D98H/E176V/E277Q/G131W/G231S/I119V/I121R/I166T/I218V/L300P/L318F/N151K/N90K/P208A/P217A/Q86G/Q94H/R138H/R169H/T345S).
T1 construct: HLA-A2.1 stabilization at the cell surface was determined by flow cytometry using mAb BB7.2; endogenous in cells; host or cells: T2 cells (processing defective, HLA-A2.1+)
Briefly: HLA-A2.1 peptide binding assay (HLA-A2.1 stabilization on processing defective T2 cells, flow cytometry with mAb BB7.2).

The target in data set [3] is T2, HLA-A2.1 (on processing defective T2 cells) (human).
T2 construct: also called MHC HLA-A2.1 molecule
Briefly: peptide binding assay on processing defective T2 cells.

With `CC(C)C[C@H](NC(=O)[C@H](CCCNC(=N)N)NC(=O)[C@H](CC(C)C)NC(=O)[C@@H](NC(=O)[C@H](C)NC(=O)[C@@H](NC(=O)CNC(=O)[C@H](CC(=O)O)NC(=O)[C@H](CC(C)C)NC(=O)[C@@H](N)CC(C)C)[C@@H](C)O)[C@@H](C)O)C(=O)O` [L-L-D-G-T-A-T-L-R-L], in data set [1], the “recognized by anti-melanoma cytotoxic T lymphocytes in the context of HLA-A2.1” value was “recognized”.
As for M-L-G-T-H-T-M-E-V (MLGTHTMEV), the “binding to the MHC HLA-A2.1 molecule” value in data set [2] is given as “bind”.
Still for that read-out and setting: as for R-L-M-K-Q-D-F-S-V (RLMKQDFSV), the entry is “bind”; as for V-L-P-D-G-Q-V-I-W-V (VLPDGQVIWV), “bind”.
Consider LLDGTATLRL (also called gp100 amino acids 457-466) [gp100 peptide LLDGTATLRL], for which, in data set [3], the binding result is reported as “binds”.
